Here are results for one molecule from paper PMC2605266 (2008).

In assay [1] the target is GST-VAMP2 harbouring only the SNARE motif (VAMP2 lacking the first 30 amino acids) (Rattus norvegicus (Rat), UniProt P63045). Put plainly: GST pull-down, immunoblot.
Assay [2] concerns the target GST fused to the cytosolic domain of VAMP2 (Rattus norvegicus (Rat), UniProt P63045). The experiment in a line: GST pull-down, immunoblot. Background: A western blot detects proteins with antibodies after separation by electrophoresis.

Sequence of GST-VAMP2 harbouring only the SNARE motif (VAMP2 lacking the first 30 amino acids) (P63045 31-92): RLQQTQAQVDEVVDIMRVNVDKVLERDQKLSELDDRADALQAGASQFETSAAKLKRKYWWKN
Sequence of GST fused to the cytosolic domain of VAMP2 (P63045 1-92): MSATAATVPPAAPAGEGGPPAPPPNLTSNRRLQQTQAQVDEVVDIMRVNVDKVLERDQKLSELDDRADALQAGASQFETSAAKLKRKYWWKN

B1: Munc18c, N-terminal His6-fusion protein (protein)
chain: MAPPVSERGLKSVVWRKIKTAVFDDCRKEGEWKIMLLDEFTTKLLSSCCKMTDLLEEGITVIENIYKNREPVRQMKALYFISPTPKSVDCFLRDFGSKSEKKYKAAYIYFTDFCPDSLFNKIKASCSKSIRRCKEINISFIPQESQVYTLDVPDAFYYCYSPDPSNASRKEVVMEAMAEQIVTVCATLDENPGVRYKSKPLDNASKLAQLVEKKLEDYYKIDEKGLIKGKTQSQLLIIDRGFDPVSTVLHELTFQAMAYDLLPIENDTYKYKTDGKEKEAVLEEDDDLWVRVRHRHIAVVLEEIPKLMKEISSTKKATEGKTSLSALTQLMKKMPHFRKQISKQVVHLNLAEDCMNKFKLNIEKLCKTEQDLALGTDAEGQRVKDSMLVLLPVLLNKNHDNCDKIRAVLLYIFGINGTTEENLDRLIHNVKIEDDSDMIRNWSHLGVPIVPPSQQAKPLRKDRSAEETFQLSRWTPFIKDIMEDAIDNRLDSKEWPYCSRCPAVWNGSGAVSARQKPRTNYLELDRKNGSRLIIFVIGGITYSEMRCAYEVSQAHKSCEVIIGSTHILTPRKLLDDIKMLNKSKDKVSFKDE
In the case of B1, the binding result in assay [1] and in assay [2] was “binds” in each case.
